Experiment [1] addresses β2-RF (full-length human BK β2 subunit with C-terminal mCherry-FLAG) (human) (UniProt Q9Y691). Briefly: pull-down + SEC; plasmid weight ratio 1:0.2:1.8 (TR2).
Experiment [2] has the same target. As to the kind of experiment: pull-down + SEC; TR1 (1:1:1); three-step affinity purification: streptactin XT (Slo1), then anti-FLAG M2 resin (β2) and anti-ρ1D4 resin (β3) one after the other, in either order; eluates, input and flow-through read by dual-colour FSEC.
Experiment [3] has as its target hSlo1EM-TS (modified human Slo1 BK α subunit with a C-terminal twin-strep tag) (human) (UniProt Q12791). The experiment is described as above.
The target of experiment [4] is β2-RF (full-length human BK β2 subunit with C-terminal mCherry-FLAG) (human) (UniProt Q9Y691). As to the kind of experiment: pull-down + SEC; as a3 but plasmid weight ratio 1:0.2:1.8 (TR2).
β2-RF (full-length human BK β2 subunit with C-terminal mCherry-FLAG) (human), sequence (Q9Y691 whole entry): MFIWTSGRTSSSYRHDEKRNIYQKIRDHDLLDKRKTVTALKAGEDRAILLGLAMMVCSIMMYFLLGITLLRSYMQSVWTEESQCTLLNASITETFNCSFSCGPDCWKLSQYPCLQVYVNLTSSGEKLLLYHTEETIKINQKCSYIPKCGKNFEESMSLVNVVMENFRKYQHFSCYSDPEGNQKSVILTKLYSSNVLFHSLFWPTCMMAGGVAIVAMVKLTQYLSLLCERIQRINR
Experiment [5] has as its target hSlo1EM-TS (modified human Slo1 BK α subunit with a C-terminal twin-strep tag) (human) (UniProt Q12791). Described as above.

β3-Gρ (full-length human BK β3a subunit with C-terminal eGFP-ρ1D4) (natural protein), sequence (Q9NPA1 whole entry): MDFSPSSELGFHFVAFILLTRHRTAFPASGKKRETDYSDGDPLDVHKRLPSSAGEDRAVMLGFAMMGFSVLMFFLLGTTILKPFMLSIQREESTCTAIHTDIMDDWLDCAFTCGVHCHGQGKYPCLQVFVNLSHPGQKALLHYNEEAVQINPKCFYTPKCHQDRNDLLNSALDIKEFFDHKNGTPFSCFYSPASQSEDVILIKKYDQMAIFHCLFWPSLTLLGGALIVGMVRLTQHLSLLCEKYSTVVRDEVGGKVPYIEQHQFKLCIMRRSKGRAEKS
hSlo1EM-TS (modified human Slo1 BK α subunit with a C-terminal twin-strep tag) (human), sequence (Q12791 whole entry): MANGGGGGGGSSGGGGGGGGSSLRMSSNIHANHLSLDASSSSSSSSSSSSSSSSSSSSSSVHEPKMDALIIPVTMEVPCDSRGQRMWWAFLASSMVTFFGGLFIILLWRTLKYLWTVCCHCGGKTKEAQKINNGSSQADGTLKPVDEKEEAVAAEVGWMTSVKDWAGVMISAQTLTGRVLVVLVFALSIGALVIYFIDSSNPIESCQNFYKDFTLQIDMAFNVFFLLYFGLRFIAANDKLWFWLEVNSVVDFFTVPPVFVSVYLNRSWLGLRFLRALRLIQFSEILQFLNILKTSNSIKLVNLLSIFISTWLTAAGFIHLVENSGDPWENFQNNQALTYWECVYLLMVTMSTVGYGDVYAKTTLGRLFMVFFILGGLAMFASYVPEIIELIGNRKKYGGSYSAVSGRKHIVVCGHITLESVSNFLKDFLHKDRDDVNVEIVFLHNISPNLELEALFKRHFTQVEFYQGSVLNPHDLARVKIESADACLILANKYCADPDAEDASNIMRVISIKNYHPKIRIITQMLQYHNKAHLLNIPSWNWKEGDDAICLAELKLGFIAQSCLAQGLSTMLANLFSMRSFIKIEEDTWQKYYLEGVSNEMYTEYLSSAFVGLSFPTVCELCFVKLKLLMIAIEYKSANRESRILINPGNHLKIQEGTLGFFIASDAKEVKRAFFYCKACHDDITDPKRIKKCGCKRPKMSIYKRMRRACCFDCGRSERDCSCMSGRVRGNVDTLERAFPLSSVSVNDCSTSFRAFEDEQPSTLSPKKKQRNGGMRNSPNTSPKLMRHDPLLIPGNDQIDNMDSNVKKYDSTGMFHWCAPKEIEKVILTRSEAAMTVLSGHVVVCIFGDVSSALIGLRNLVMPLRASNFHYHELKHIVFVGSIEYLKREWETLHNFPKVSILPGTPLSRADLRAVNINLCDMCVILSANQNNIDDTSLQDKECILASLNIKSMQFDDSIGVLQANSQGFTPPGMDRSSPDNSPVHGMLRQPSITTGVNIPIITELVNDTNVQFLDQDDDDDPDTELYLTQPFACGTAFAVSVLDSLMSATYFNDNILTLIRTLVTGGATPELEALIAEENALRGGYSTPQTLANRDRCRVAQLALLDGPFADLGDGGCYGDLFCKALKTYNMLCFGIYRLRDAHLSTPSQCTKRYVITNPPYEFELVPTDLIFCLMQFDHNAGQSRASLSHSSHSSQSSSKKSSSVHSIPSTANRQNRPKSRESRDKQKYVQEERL

As for “β3-Gρ (full-length human BK β3a subunit with C-terminal eGFP-ρ1D4) (natural protein)”, the molar ratio of β2-RF to β3-Gρ in the triply purified complex came to 0.89 mol/mol in experiment [1] and 2.33 mol/mol in experiment [2]. Moreover, the values for the percent of total Slo1–β2 complexes that are ternary (hold β3 too) in experiment [2] and in experiment [4] were 14% and 58%, respectively. Besides, the results for the stoichiometry N (β3 per 4 Slo1) in experiment [3] and in experiment [5] were 1.2 and 2.1, respectively.

The values above are taken from publication PMC12646051.
